Measurements from paper PMC11417369, “DNA sequence and chromatin differentiate sequence-specific transcription factor binding in the human malaria parasite Plasmodium falciparum”.

B1: GTGCAC_site9692 (dsDNA)
DNA 1: TATATATGTATAAGAGTGCATATGCATATATGTATA
DNA 2: TATACATATATGCATATGCACTCTTATACATATATA
B2: GTGCAC_site10338 (dsDNA)
DNA 1: TGATATAAAATTAAAGTGCAAAAAAAAAATAAAAAA
DNA 2: TTTTTTATTTTTTTTTTGCACTTTAATTTTATATCA
B3: GTGCAC_site9933 (dsDNA)
DNA 1: ATCTTATATATATGTGTGCACGTATATATAAGCAAT
DNA 2: ATTGCTTATATATACGTGCACACATATATATAAGAT
B4: GTGCAC_site9698 (dsDNA)
DNA 1: GACTTTTCATTTATAGTGCAAGTTTTTTTTTTTTTT
DNA 2: AAAAAAAAAAAAAACTTGCACTATAAATGAAAAGTC
B5: GTGCAC_negctrl_site727 (dsDNA)
DNA 1: TTTTTCTTTTTCTTTTTTTCTTTTTTTTTTTTTTTC
DNA 2: GAAAAAAAAAAAAAAAGAAAAAAAGAAAAAGAAAAA
B6: GTGCAC_negctrl_site272 (dsDNA)
DNA 1: AAGTTAGGATAGATCCAATAATTTTTAGTTTCTCTT
DNA 2: AAGAGAAACTAAAAATTATTGGATCTATCCTAACTT
B7: GTGCAC_negctrl_site380 (dsDNA)
DNA 1: ATGGAAGGATAATAAAAACCTTTACCTTTCTGTTTA
DNA 2: TAAACAGAAAGGTAAAGGTTTTTATTATCCTTCCAT
B8: GTGCAC_negctrl_site29 (dsDNA)
DNA 1: TAAGTCAAAACTTTTTTTTCTAAATTTCCATAATTA
DNA 2: TAATTATGGAAATTTAGAAAAAAAAGTTTTGACTTA
B9: GTGCAC_site9865 (dsDNA)
DNA 1: ATGTTGCTCATATGAGTGCACGTTTCATTTCAGTTT
DNA 2: AAACTGAAATGAAACGTGCACTCATATGAGCAACAT
B10: GTGCAC_site10061 (dsDNA)
DNA 1: AAAAAAAAAAAAAGAGTGCAAACTATGATAATTTAA
DNA 2: TTAAATTATCATAGTTTGCACTCTTTTTTTTTTTTT
B11: GTGCAC_site10762 (dsDNA)
DNA 1: TGTAAAATATAAAAAGTGCATTTCTTTTAATATGAT
DNA 2: ATCATATTAAAAGAAATGCACTTTTTATATTTTACA
B12: GTGCAC_negctrl_site725 (dsDNA)
DNA 1: TTTTTAATCAGAAATATTTATTAAAGAATTTTATAG
DNA 2: CTATAAAATTCTTTAATAAATATTTCTGATTAAAAA
B13: GTGCAC_negctrl_site487 (dsDNA)
DNA 1: ATCATGGAAAAAACAAATGGGCTACATTACCTTTTG
DNA 2: CAAAAGGTAATGTAGCCCATTTGTTTTTTCCATGAT
B14: GTGCAC_negctrl_site145 (dsDNA)
DNA 1: TTTGTAAAATAATATCTTTCATGTCCTTACTAATTA
DNA 2: TAATTAGTAAGGACATGAAAGATATTATTTTACAAA
B15: GTGCAC_site9856 (dsDNA)
DNA 1: TTAGCAGGACGTTTGGTGCACGTACTGTTTTTCTTT
DNA 2: AAAGAAAAACAGTACGTGCACCAAACGTCCTGCTAA
B16: GTGCAC_site9450 (dsDNA)
DNA 1: ATAACAAAATGAAGAGTGCATTACCAAGTGGGTAAA
DNA 2: TTTACCCACTTGGTAATGCACTCTTCATTTTGTTAT
B17: GTGCAC_site10110 (dsDNA)
DNA 1: AGTAGATTTTTATTAGTGCATTTTATACTACAAAAA
DNA 2: TTTTTGTAGTATAAAATGCACTAATAAAAATCTACT
B18: GTGCAC_site10539 (dsDNA)
DNA 1: ATATATTTTTATATAGTGCAAGTAATAAAAAGGAAT
DNA 2: ATTCCTTTTTATTACTTGCACTATATAAAAATATAT
B19: GTGCAC_negctrl_site338 (dsDNA)
DNA 1: TTTTTTTTTTTTTTTTTTTTTTTGTCTTATTTTTTT
DNA 2: AAAAAAATAAGACAAAAAAAAAAAAAAAAAAAAAAA
B20: GTGCAC_site10652 (dsDNA)
DNA 1: ATATATATATTTTGGTAGCACCTCCTTTTTTTTTTT
DNA 2: AAAAAAAAAAAGGAGGTGCTACCAAAATATATATAT
B21: GTGCAC_site10399 (dsDNA)
DNA 1: CATATTATTATTTTGGTGCATACTTATATATATTTT
DNA 2: AAAATATATATAAGTATGCACCAAAATAATAATATG
B22: GTGCAC_site10124 (dsDNA)
DNA 1: AAAAAAAAAAAATACGTGCACTATGATATATTATAT
DNA 2: ATATAATATATCATAGTGCACGTATTTTTTTTTTTT
B23: GTGCAC_site9537 (dsDNA)
DNA 1: TAAATATATATATGTGTGCACTTCTTCATTTTAATA
DNA 2: TATTAAAATGAAGAAGTGCACACATATATATATTTA
B24: GTGCAC_site10413 (dsDNA)
DNA 1: AATAAATTCATGATAGTGCAAAAATTATTTTTGTTA
DNA 2: TAACAAAAATAATTTTTGCACTATCATGAATTTATT
B25: GTGCAC_site10737 (dsDNA)
DNA 1: TAATTTCTTTAGGGGGTGCTTTTATAGTTTTTATTA
DNA 2: TAATAAAAACTATAAAAGCACCCCCTAAAGAAATTA
B26: GTGCAC_site10078 (dsDNA)
DNA 1: AATTATATATAAAAAGTGCAAAACGATAATTCATCA
DNA 2: TGATGAATTATCGTTTTGCACTTTTTATATATAATT
B27: GTGCAC_site10465 (dsDNA)
DNA 1: TGGTATGCAATATTGGTGCGTATATATTTTAAAGGG
DNA 2: CCCTTTAAAATATATACGCACCAATATTGCATACCA
B28: GTGCAC_site10269 (dsDNA)
DNA 1: TGTGTATATATGCTGGTGCAACTTTAAAAAATAATC
DNA 2: GATTATTTTTTAAAGTTGCACCAGCATATATACACA
B29: GTGCAC_site10509 (dsDNA)
DNA 1: ACAACAATTCACTTGATGCACTAACCAAAAAAATAA
DNA 2: TTATTTTTTTGGTTAGTGCATCAAGTGAATTGTTGT
B30: GTGCAC_site10031 (dsDNA)
DNA 1: ATAAATAAAACAACAGTGCAATAAAATTAGTTGAGG
DNA 2: CCTCAACTAATTTTATTGCACTGTTGTTTTATTTAT
B31: GTGCAC_negctrl_site165 (dsDNA)
DNA 1: AATCGATTGGATAATATTTTTTCTCTTAATTTTTTG
DNA 2: CAAAAAATTAAGAGAAAAAATATTATCCAATCGATT
B32: GTGCAC_site10562 (dsDNA)
DNA 1: TTATTTATTTATATAGTGCAATAAACACATAAATAG
DNA 2: CTATTTATGTGTTTATTGCACTATATAAATAAATAA
B33: GTGCAC_site9778 (dsDNA)
DNA 1: CACCCTTTACACAAGGTGCATACTTTATTATATTTT
DNA 2: AAAATATAATAAAGTATGCACCTTGTGTAAAGGGTG
B34: GTGCAC_negctrl_site2 (dsDNA)
DNA 1: ATATGAACAAAATAAATCTCTTCAAAAATAATGTTC
DNA 2: GAACATTATTTTTGAAGAGATTTATTTTGTTCATAT
B35: GTGCAC_negctrl_site124 (dsDNA)
DNA 1: TTTTAAAATTTTTTTTTTTTTTTTTTATGAACAAGT
DNA 2: ACTTGTTCATAAAAAAAAAAAAAAAAAATTTTAAAA
B36: GTGCAC_site9712 (dsDNA)
DNA 1: GAAAGAAAATATTAAGTGCATATTTTAATGATACAA
DNA 2: TTGTATCATTAAAATATGCACTTAATATTTTCTTTC
B37: GTGCAC_site10244 (dsDNA)
DNA 1: ATCCGCTGCCTTTTGGTGCAGAACATAATCATGTAA
DNA 2: TTACATGATTATGTTCTGCACCAAAAGGCAGCGGAT
B38: GTGCAC_site10533 (dsDNA)
DNA 1: CGTAAATTTTTCTAAGTGCATGTTAATTTTTCAATT
DNA 2: AATTGAAAAATTAACATGCACTTAGAAAAATTTACG
B39: GTGCAC_site10125 (dsDNA)
DNA 1: ATATATATGGAAACAGTGCAATACATATATATATAT
DNA 2: ATATATATATATGTATTGCACTGTTTCCATATATAT
B40: GTGCAC_site10728 (dsDNA)
DNA 1: TCATACATGGTGTGTTTGCACTTGACCTATATTCAT
DNA 2: ATGAATATAGGTCAAGTGCAAACACACCATGTATGA
B41: GTGCAC_site10445 (dsDNA)
DNA 1: ACGGAAAAAGAAAAGGTGCATATGGACACAATATAT
DNA 2: ATATATTGTGTCCATATGCACCTTTTCTTTTTCCGT
B42: GTGCAC_site10123 (dsDNA)
DNA 1: ATACCTATTTGATGAGTGCATTATCCAATATATGTA
DNA 2: TACATATATTGGATAATGCACTCATCAAATAGGTAT
B43: GTGCAC_negctrl_site34 (dsDNA)
DNA 1: AACTTAAAAAAAAAAAAAAAAAAAAAAAAAAAAAAA
DNA 2: TTTTTTTTTTTTTTTTTTTTTTTTTTTTTTTAAGTT
B44: GTGCAC_negctrl_site466 (dsDNA)
DNA 1: AAAAAAATTAAAAATTAAAATTAAAAATAATATATA
DNA 2: TATATATTATTTTTAATTTTAATTTTTAATTTTTTT

The binders below were run against T1, HDP1 homeodomain-like (Plasmodium falciparum, UniProt Q8IKH4 2990-3078) (assay: gcPBM; about 25 ug protein; PBS, 1% milk, 0.2 mg/ml BSA, salmon testes DNA, 0.03% Triton X-100). Settings: tags: N-terminal GST (pGEX-4T-1), kept; chain copies: 2; label: surface-attached array probe.
T1 sequence: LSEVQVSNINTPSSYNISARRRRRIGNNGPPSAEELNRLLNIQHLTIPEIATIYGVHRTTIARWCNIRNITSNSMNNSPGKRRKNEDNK

Row | Binder | binding signal
1 | B1 | 8.71 ln median PBM intensity, better of two orientations
2 | B2 | 8.82 ln median PBM intensity, better of two orientations
3 | B3 | 9.28 ln median PBM intensity, better of two orientations
4 | B4 | 7.84 ln median PBM intensity, better of two orientations
5 | B5 | 5.74 ln median PBM intensity, better of two orientations
6 | B6 | 5.7 ln median PBM intensity, better of two orientations
7 | B7 | 5.82 ln median PBM intensity, better of two orientations
8 | B8 | 5.89 ln median PBM intensity, better of two orientations
9 | B9 | 8.54 ln median PBM intensity, better of two orientations
10 | B10 | 8.19 ln median PBM intensity, better of two orientations
11 | B11 | 7.62 ln median PBM intensity, better of two orientations
12 | B12 | 5.95 ln median PBM intensity, better of two orientations
13 | B13 | 5.94 ln median PBM intensity, better of two orientations
14 | B14 | 5.95 ln median PBM intensity, better of two orientations
15 | B15 | 9.34 ln median PBM intensity, better of two orientations
16 | B16 | 7.77 ln median PBM intensity, better of two orientations
17 | B17 | 8.86 ln median PBM intensity, better of two orientations
18 | B18 | 8.63 ln median PBM intensity, better of two orientations
19 | B19 | 5.91 ln median PBM intensity, better of two orientations
20 | B20 | 8.08 ln median PBM intensity, better of two orientations
21 | B21 | 9.47 ln median PBM intensity, better of two orientations
22 | B22 | 9.03 ln median PBM intensity, better of two orientations

Row | Binder | binding signal
23 | B23 | 9.22 ln median PBM intensity, better of two orientations
24 | B24 | 8.5 ln median PBM intensity, better of two orientations
25 | B25 | 8.27 ln median PBM intensity, better of two orientations
26 | B26 | 8.44 ln median PBM intensity, better of two orientations
27 | B27 | 8.58 ln median PBM intensity, better of two orientations
28 | B28 | 9.48 ln median PBM intensity, better of two orientations
29 | B29 | 7.97 ln median PBM intensity, better of two orientations
30 | B30 | 8.8 ln median PBM intensity, better of two orientations
31 | B31 | 5.77 ln median PBM intensity, better of two orientations
32 | B32 | 9.14 ln median PBM intensity, better of two orientations
33 | B33 | 8.31 ln median PBM intensity, better of two orientations
34 | B34 | 5.98 ln median PBM intensity, better of two orientations
35 | B35 | 5.92 ln median PBM intensity, better of two orientations
36 | B36 | 8.76 ln median PBM intensity, better of two orientations
37 | B37 | 8.03 ln median PBM intensity, better of two orientations
38 | B38 | 7.89 ln median PBM intensity, better of two orientations
39 | B39 | 9.41 ln median PBM intensity, better of two orientations
40 | B40 | 8.23 ln median PBM intensity, better of two orientations
41 | B41 | 9.46 ln median PBM intensity, better of two orientations
42 | B42 | 8.94 ln median PBM intensity, better of two orientations
43 | B43 | 5.77 ln median PBM intensity, better of two orientations
44 | B44 | 5.91 ln median PBM intensity, better of two orientations
